Variants at the floor of the assay were thinned out.
B1: TPR 5TU (parent)
chain: GGAUCUUCUCGAUCUAACAAAAAAGACAAAUCUGCCACAAAGCUUGAGAGCAUCUUCGGAUGCAGAGGCGGCAGCCUUCGGUGGCGCGAUAGCGCCAACGUUCUCAACUAUGACACGCAAAACGCGUGCUCCGUUGAAUGGAGUUUAUCAUG

Variants of: B1
Experiment: polymerase ribozyme fitness, log enrichment relative to wild type (log ratio); higher = more active; in vitro selection for triplet polymerase activity
Method in brief: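 The heterodimeric triplet polymerase ribozyme's subunits were each mutagenized into PCR-built libraries and transcribed. Every library was selected once, in triplicate, by annealing with a biotinylated primer, the partner subunit and triplets, incubating frozen at −7 °C, gel-excising extended constructs, capturing on streptavidin beads and running RT-PCR. Input and output libraries were Illumina-sequenced, with genotypes kept only at ≥10 input reads and ≥1 read per output. Fitness, from inverse-variance-weighted replicate averages, is the base-2 logarithm of genotype enrichment over wild-type enrichment.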

| Variant | polymerase ribozyme fitness (log ratio) |
| --- | --- |
| GGAUCUUCUCGAUCUAACAAAAAAGACAAAUCUGCCACAAAGCUUGAGAGCAUCUUCGGAUGCAGAGGCGGCAGCCUUCGGUGGCGCGAUAGCGCCAACGUUCUCAACUCUGACACGCAAAACGCGUGCUCCGUUGAAUAGAGUUUAUCAUG [A110C G140A] | ≤ -4.2 |
| GGAUCUUCUCGAUCUAACAAAAAAGACAAAUCUGCCACAAAGCUUGAGAGCAUCUUCGGAUGCAGAGGCGGCAGCCUUCGGUGGCGCGAUAGCGCCAACGUUCUCAAGUAUGACACGCAAAACGCGUGCUCCGUUGAAUGGAGCUUAUCAUG [C108G U144C] | -4.13 |
| GGAUCUUCUCGAUCUAACAAAAAAGACAAAUCUGCCACAAAGCUUGAGAGCAUCUUCGGAUGCAGAGGCGGCAGCCUUCGGUGGCGCGAUAGCGCCAACGUUCUCCACUAUGACACGCAAAACGCGUGCUCCGUUGAAUGUAGUUUAUCAUG [A106C G141U] | 0.961 |
| GGAUCUUCUCGAUCUAACAAAAAAGACAAAUCUGCCACAAAGCUUGAGAGCAUCUUCGGAUGCAGAGGCGGCAGCCUUCGGUGGCGCGAUAGCGCCAACGUUCUCAACUGUGACACACAAAACGCGUGCUCCGUUGAAUGGAGAUUAUCAUG [A110G G117A U144A] | -4.15 |
| GGAUCUUCUCGAUCUAACAAAAAAGACAAAUCUGCCACAAAGCUUGAGAGCAUCUUCGGAUGCAGAGGCGGCAGCCUUCGGUGGCGCGAUAGCGCCAACGUUCUCAGCUAUGACACGCAAAACGCGUGCUCCGUUGAAUGGAGUUUAUCAUG [A107G] | -2.92 |
| GGAUCUUCUCGAUCUAACAAAAAAGACAAAUCUGCCACAAAGCUUGAGAGCAUCUUCGGAUGCAGAGGCGGCAGCCUUCGGUGGCGCGAUAGCGCCAACGUUCUCAUCUAUGACACGCAAAACGCGUGCUCCGUUGAAUGGAGUUUAUCAUG [A107U] | -3.06 |
| GGAUCUUCUCGAUCUAACAAAAAAGACAAAUCUGCCACAAAGCUUGAGAGCAUCUUCGGAUGCAGAGGCGGCAGCCUUCGGUGGCGCGAUAGCGCCAACGUUCUCACCUAUGACACGCAAAACGCGUGCUCCGUUGAAUGGAGUUUAUCAUG [A107C] | -3.58 |
| GGAUCUUCUCGAUCUAACAAAAAAGACAAAUCUGCCACAAAGCUUGAGAGCAUCUUCGGAUGCAGAGGCGGCAGCCUUCGGUGGCGCGAUAGCGCCAACGUUCUCAAUUAUGACACUCAGAACGCGUGCUCCGUUGAAUGGAGUUUAUCAUG [C108U G117U A120G] | -3.18 |
| GGAUCUUCUCGAUCUAACAAAAAAGACAAAUCUGCCACAAAGCUUGAGAGCAUCUUCGGAUGCAGAGGCGGCAGCCUUCGGUGGCGCGAUAGCGCCAACGUUCUCGACUAUGACAUGCAAAACGCGUGCUCCGUUGAAAGGAGUUUAUCAUG [A106G C116U U139A] | ≤ -4.2 |
| GGAUCUUCUCGAUCUAACAAAAAAGACAAAUCUGCCACAAAGCUUGAGAGCAUCUUCGGAUGCAGAGGCGGCAGCCUUCGGUGGCGCGAUAGCGCCAACGUUCUCAACAAUGACACGCAAAACGCGUGCUCCGUCGAAUGGAGUUUAUCAUG [U109A U135C] | -3.36 |
| GGAUCUUCUCGAUCUAACAAAAAAGACAAAUCUGCCACAAAGCUUGAGAGCAUCUUCGGAUGCAGAGGCGGCAGCCUUCGGUGGCGCGAUAGCGCCAACGUUCUUAACUAUGACACGCAAAACGCGUGCUCCGUUGAAUGGAUUUUAUCAUG [C105U G143U] | -2.41 |
| GGAUCUUCUCGAUCUAACAAAAAAGACAAAUCUGCCACAAAGCUUGAGAGCAUCUUCGGAUGCAGAGGCGGCAGCCUUCGGUGGCGCGAUAGCGCCAACGUUCUUAACUAUGACACGCAAAACGCGUGCAGCGUUGAAUUGAGUUUAUCAUG [C105U U130A C131G G140U] | -3.96 |
| GGAUCUUCUCGAUCUAACAAAAAAGACAAAUCUGCCACAAAGCUUGAGAGCAUCUUCGGAUGCAGAGGCGGCAGCCUUCGGUGGCGCGAUAGCGCCAACGUUCUCAGCUAUGACACGCAAAACGCGUGCUCCGUUGAAUGGAGGUUAUCAUG [A107G U144G] | -3.59 |
| GGAUCUUCUCGAUCUAACAAAAAAGACAAAUCUGCCACAAAGCUUGAGAGCAUCUUCGGAUGCAGAGGCGGCAGCCUUCGGUGGCGCGAUAGCGCCAACGUUCUCCACUAUGACACGCAAAACGCGUGCUCCGCUGAAUGGAGUUUAUCAUG [A106C U134C] | 0.274 |
| GGAUCUUCUCGAUCUAACAAAAAAGACAAAUCUGCCACAAAGCUUGAGAGCAUCUUCGGAUGCAGAGGCGGCAGCCUUCGGUGGCGCGAUAGCGCCAACGUUCUCGACCAUGACACGCAAAACGCGUGCUCCGUUGAAUGGAGUUUAUCAUG [A106G U109C] | -3.91 |
| GGAUCUUCUCGAUCUAACAAAAAAGACAAAUCUGCCACAAAGCUUGAGAGCAUCUUCGGAUGCAGAGGCGGCAGCCUUCGGUGGCGCGAUAGCGCCAACGUUCUCAACGAUGACACGCAAAACGCGUGCUCCGUUGAAUGGAGUUUAUCAUG [U109G] | -0.578 |
| GGAUCUUCUCGAUCUAACAAAAAAGACAAAUCUGCCACAAAGCUUGAGAGCAUCUUCGGAUGCAGAGGCGGCAGCCUUCGGUGGCGCGAUAGCGCCAACGUUCUCAACCAUGACACGCAAAACGCGUGCUCCGUUGAAUGGAGUUUAUCAUG [U109C] | -2.81 |
| GGAUCUUCUCGAUCUAACAAAAAAGACAAAUCUGCCACAAAGCUUGAGAGCAUCUUCGGAUGCAGAGGCGGCAGCCUUCGGUGGCGCGAUAGCGCCAACGUUCUCAACAAUGACACGCAAAACGCGUGCUCCGUUGAAUGGAGUUUAUCAUG [U109A] | -1.11 |
| GGAUCUUCUCGAUCUAACAAAAAAGACAAAUCUGCCACAAAGCUUGAGAGCAUCUUCGGAUGCAGAGGCGGCAGCCUUCGGUGGCGCGAUAGCGCCAACGUUCUCAAUUAUGACACGCAAAACGCGUGCUCCGUUGAAUGGAGUUAAUCAUG [C108U U146A] | -2.84 |
